Consider 2 molecules from article PMC8102515.

Series [1] addresses T1, human peroxiredoxin 6 (human), P30041.
T1 chain: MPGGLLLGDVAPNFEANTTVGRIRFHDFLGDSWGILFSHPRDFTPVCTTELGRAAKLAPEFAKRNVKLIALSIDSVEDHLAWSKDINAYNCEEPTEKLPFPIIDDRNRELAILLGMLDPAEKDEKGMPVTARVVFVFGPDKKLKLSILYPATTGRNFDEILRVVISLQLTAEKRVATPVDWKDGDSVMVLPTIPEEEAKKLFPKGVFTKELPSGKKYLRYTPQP
Put plainly: dynamic light scattering; hPrdx6 1.0 mg/ml, pH 10.0; fixed angle of 90°, laser 689 nm. The note with it: remark: other sources report otherwise.

For series [2] the target is unchanged. The series can be described thus: dynamic light scattering; hPrdx6 1.0 mg/ml, pH 2.0; fixed angle of 90°, laser 689 nm; two peaks. The note with it: remark: other sources report otherwise.
The target is the same in series [3]. Put plainly: dynamic light scattering; hPrdx6 1.0 mg/ml, pH 4.0; fixed angle of 90°, laser 689 nm; oligomer told from the hydrodynamic diameter. The note with it: remark: other sources report otherwise.
Series [4] shares this target. Put plainly: dynamic light scattering; hPrdx6 1.0 mg/ml, pH 9.0; fixed angle of 90°, laser 689 nm. To be noted: remark: other sources report otherwise.
For series [5] the target is unchanged. Put plainly: dynamic light scattering; hPrdx6 1.0 mg/ml, pH 7.0; fixed angle of 90°, laser 689 nm; oligomer told from the hydrodynamic diameter. To be noted: remark: other sources report otherwise.
Series [6] has the same target. The series can be described thus: dynamic light scattering; hPrdx6 1.0 mg/ml, pH 3.0; fixed angle of 90°, laser 689 nm. To be noted: remark: other sources report otherwise.
The target is the same in series [7]. The series can be described thus: dynamic light scattering; hPrdx6 1.0 mg/ml, pH 8.0; fixed angle of 90°, laser 689 nm. To be noted: remark: other sources report otherwise.
Series [8] shares this target. The series can be described thus: dynamic light scattering; hPrdx6 1.0 mg/ml, pH 6.0; fixed angle of 90°, laser 689 nm. To be noted: remark: other sources report otherwise.
For series [9] the target is unchanged. The series can be described thus: dynamic light scattering; hPrdx6 1.0 mg/ml, pH 5.0; fixed angle of 90°, laser 689 nm; two peaks. To be noted: remark: other sources report otherwise.
The target of series [10] is P30041. Put plainly: dynamic light scattering; hPrdx6 1.0 mg/ml, pH 2.0; fixed angle of 90°, laser 689 nm; two peaks. To be noted: other: dynamic light scattering.

Where “and” joins values, the source holds several entries; their conditions need not be identical. Equal values may be shown once.

B1: human peroxiredoxin 6, P30041 1-224 (enzyme)
chain: MPGGLLLGDVAPNFEANTTVGRIRFHDFLGDSWGILFSHPRDFTPVCTTELGRAAKLAPEFAKRNVKLIALSIDSVEDHLAWSKDINAYNCEEPTEKLPFPIIDDRNRELAILLGMLDPAEKDEKGMPVTARVVFVFGPDKKLKLSILYPATTGRNFDEILRVVISLQLTAEKRVATPVDWKDGDSVMVLPTIPEEEAKKLFPKGVFTKELPSGKKYLRYTPQP
In the case of B1, in series [1], the stoichiometry N (in general, a count of units in the complex or per binding partner) turned out to be 2 and the volume fraction of the dimer peak (Hd 6.3 nm) is 100%. In series [2], this molecule gave a stoichiometry N of 2 and a volume fraction of the larger peak (Hd 14.17 nm; the text's dimer) of 30.2%. Moreover, in series [3], the stoichiometry N was determined as 4 and the volume fraction of the tetramer peak (Hd 13.75 nm) worked out at 99.6%. In series [4], this molecule displayed a stoichiometry N of 2 and a volume fraction of the dimer peak (Hd 6.4 nm) of 100%. Also, in [5], the stoichiometry N came to 2 and the volume fraction of the dimer peak (Hd 7.1 nm) stood at 100%. For the same molecule, in [6], the stoichiometry N amounted to 4 and the volume fraction of the tetramer peak (Hd 12.2 nm) worked out at 99.2%. In series [7], this molecule had a stoichiometry N of 2 and a volume fraction of the dimer peak (Hd 6.31 nm) of 100%. In addition, in [8], the stoichiometry N was found to be 2 and the volume fraction of the dimer peak (Hd 8.12 nm) stood at 100%. Besides, in series [9], the stoichiometry N is 2 and 4; the volume fraction of the dimer peak (Hd 6.39 nm) amounted to 29.8%; the volume fraction of the tetramer peak (Hd 13.44 nm) was 70.2%.

B2: human peroxiredoxin 6 (protein)
chain: MPGGLLLGDVAPNFEANTTVGRIRFHDFLGDSWGILFSHPRDFTPVCTTELGRAAKLAPEFAKRNVKLIALSIDSVEDHLAWSKDINAYNCEEPTEKLPFPIIDDRNRELAILLGMLDPAEKDEKGMPVTARVVFVFGPDKKLKLSILYPATTGRNFDEILRVVISLQLTAEKRVATPVDWKDGDSVMVLPTIPEEEAKKLFPKGVFTKELPSGKKYLRYTPQP
B2 yielded a volume fraction of the monomer peak (Hd 3.7 nm) in [10] of 69.8%.
